Assay results published in US20030175364A1, “Process for binding carotenoids to proteins and the products thereof” (priority 2002, published 2003).

B1: Chicken Serum Albumin: chicken albumin (protein, UniProt P19121 24-615, looked up)
Albumin: FARDAEHKSEIAHRYNDLKEETFKAVAMITFAQYLQRCSYEGLSKLVKDVVDLAQKCVANEDAPECSKPLPSIILDEICQVEKLRDSYGAMADCCSKADPERNECFLSFKVSQPDFVQPYQRPASDVICQEYQDNRVSFLGHFIYSVARRHPFLYAPAILSFAVDFEHALQSCCKESDVGACLDTKEIVMREKAKGVSVKQQYFCGILKQFGDRVFQARQLIYLSQKYPKAPFSEVSKFVHDSIGVHKECCEGDMVECMDDMARMMSNLCSQQDVFSGKIKDCCEKPIVERSQCIMEAEFDEKPADLPSLVEKYIEDKEVCKSFEAGHDAFMAEFVYEYSRRHPEFSIQLIMRIAKGYESLLEKCCKTDNPAECYANAQEQLNQHIKETQDVVKTNCDLLHDHGEADFLKSILIRYTKKMPQVPTDLLLETGKKMTTIGTKCCQLGEDRRMACSEGYLSIVIHDTCRKQETTPINDNVSQCCSQLYANRRPCFTAMGVDTKYVPPPFNPDMFSFDEKLCSAPAEEREVGQMKLLINLIKRKPQMTEEQIKTIADGFTAMVDKCCKQSDINTCFGEEGANLIVQSRATLGIGA
B2: Kunitz: soybean Kunitz proteinase inhibitor (protein, UniProt P01070 25-205, looked up)
Trypsin inhibitor A: DFVLDNEGNPLENGGTYYILSDITAFGGIRAAPTGNERCPLTVVQSRNELDKGIGTIISSPYRIRFIAEGHPLSLKFDSFAVIMLCVGIPTEWSVVEDLPEGPAVKIGENKDAMDGWFRLERVSDDEFNNYKLVFCPQQAEDDKCGDIGISIDHDDGTRRLVVSKNKPLVVQFQKLDKESL

Experiment: Binding of lutein to selected proteins at ng scale (hexane extraction, absorbance at 280 and 446 nm)
Method: The carotenoid used in this Example 3 was lutein in dry cake form (Kemin Foods, L.C., Des Moines, Iowa). The cake was dissolved in THF at a concentration of approximately 5.28 mM (3 mg lutein in 1 ml THF). Four hundred nanograms of a selected protein (bovine and chicken albumin, gamma-globulins, Kunitz inhibitor, Bowman-Birk inhibitor, whey, and soy protein isolates 873 and 891 from Archer Daniels Midland, DeKalb, Ill.) were added to 200 μl Tris buffer (1.74 g Trizma crystals and 0.42 g calcium chloride added to 250 ml de-ionized H2O, pH 8.74) together with 2 μl of the lutein/THF solution. These reaction solutions were prepared in microcentrifuge tubes (1.5 ml), mixed, and allowed to react at 4° C., overnight, and in the dark. In addition, all reactions were performed in the presence of an alternative metal ion selected from the group Mg^++, Mn^++, Fe^+++, K^+, and Ca^++(MgCl2 6H2O, MnCl24H2O, FeCl3 6H2O, KCl, and CaCl2) at 60 μM concentration.
The hexane wash, vortex and centrifuge procedure was repeated six times. The supernatant was extracted and combined from all six washes and used later to compare absorbance vs. aqueous phase.
Protein and lutein content in the protein solutions and solvents used for extraction were determined by measuring the absorbance at 280 and 446 nm using a spectrophotometer.
The results are compiled and are reported in weight:weight or mol:mol (when available) ratios.

Row | Molecule | Lutein/Protein Ratio mol/mol (Ca^2+ 60 μM) [mol/mol] | Lutein/Protein Ratio w/w (Ca^2+ 60 μM) [w/w] | Lutein/Protein Ratio mol/mol (Fe^3+ 60 μM) [mol/mol] | Lutein/Protein Ratio w/w (Fe^3+ 60 μM) [w/w] | Lutein/Protein Ratio mol/mol (K^+ 60 μM) [mol/mol] | Lutein/Protein Ratio w/w (K^+ 60 μM) [w/w] | Lutein/Protein Ratio mol/mol (Mg^+ 60 μM) | Lutein/Protein Ratio w/w (Mg^+ 60 μM) [w/w] | Lutein/Protein Ratio mol/mol (w/o metal ions) [mol/mol] | Lutein/Protein Ratio w/w (w/o metal ions) [w/w]
1 | Bovine Serum Albumin: bovine albumin | 506 | 4.29 | 365 | 3.1 | 383 | 3.24 | 294 mol/mol | 2.49 | 306 | 2.59
2 | B1 | 67 | 0.84 | 71 | 0.9 | 95 | 1.2 | 116? mol/mol | 1.16 | 105 | 1.33
3 | B2 | 31 | 0.78 | 29 | 0.74 | 24 | 0.6 | 29 mol/mol | 0.74 | 46 | 1.17
